Test results taken from patent US20210292392A1 (TSB THERAPEUTICS BEIJING, published 2021).

Tests used:
[1] = biological target: T1, full length spike (S) protein of SARS-CoV-2 (SARS-CoV-2, UniProt P0DTC2 14-1273); experiment: cell-based or functional assay
[2] = biological target: recombinant RBD of the spike protein of SARS-CoV-2 (residues Arg319-Phe541) (SARS-CoV-2, UniProt P0DTC2 319-541); experiment: SPR, RBD on CM5 chip
[3] = biological target: T1, full length spike (S) protein of …; experiment: cell-based or functional assay; remark: listed apart in the source
[4] = biological target: spike protein of live SARS-CoV-2 (SARS-CoV-2, UniProt P0DTC2 14-1273); experiment: cell-based or functional assay
[5] = biological target: spike protein on live SARS-CoV-2 (SARS-CoV-2, UniProt P0DTC2 14-1273); experiment: cell-based or functional assay
[6] = biological target: spike (S) protein of live SARS-CoV-2 (SARS-CoV-2, UniProt P0DTC2 14-1273); experiment: cell-based or functional assay
[7] = biological target: full length spike (S) protein of SARS-CoV-2 on pseudovirus (SARS-CoV-2, UniProt P0DTC2 14-1273); experiment: cell-based or functional assay

B1: P5A-1C8 (antibody, human IgG1, kappa, V domains shown)
VH: QVQLVQSGAEVKKPGASVKVSCKASGYTFTSYYMHWVRQAPGQGLEWMGIINPSGGSTSYAQKFQGRVTMTRDTSTSTVYMELSSLRSEDTAVYYCARSARDYYDSSGYYYRAEYFQHWGQGTLVTVSS
VL: DIQMTQSPSSLSASVGDRVTITCQASQDISNYLNWYQQKPGKAPKLLIYDASNLETGVPSRFSGSGSGTDFTFTISSLQPEDIATYYCQQYDNLPSITFGQGTRLEIKR
- IC50, pseudovirus neutralization [1]: 0.434 µg/mL

B2: P1A-1C10 (antibody, V domains shown)
VH: QVQLVQSGAEVKNPGSSVKVSCKAGGGTSSFYDINWVRQAPGQGLEWIGKIIPRLDIADYAQKSQGRVTITADKSTSTVYLELSSLKSDDTAVYFCARGRPGSEWAYGPFDLWGQGTLVTVSS
VL: DIQMTQSPSTLSASVGDRVTITCRASQSSRAWLAWYQQKPGKAPKLLISKASSLESGVPSRFSGSGYGTEFTLTISSLQPDDSATYYCHQYNSSPFTFGPGTKVQIKR
notes: human IgG1, kappa
- Kd [2]: 8.48 nM
- IC50, Pesudovirus neutralization [3]: 21.5 µg/mL

B3: P5A-1D1 (antibody, V domains shown)
VH: EVQLVESGGGLIQPGGSLRLSCAASGLTVSSNYMSWVRQAPGKGLEWVSVIYSGGSTYYADSVKGRFTISRDNSKNTLYLQMNSLRAEDTAVYYCARDLYYYGMDVWGQGTTVTVST
VL: DIQLTQSPSFLSASVGDRVTITCRASQGISSYLAWYQQKPGKAPKLLIYAASTLQSGVPSRFSGSGSGTDFTLTISSLQPEDFATYYCQQLNSYPTFGQGTRLEIKR
- Live virus IC50 [4]: 0.0189 µg/mL

B4: P2C-1A3 (antibody, V domains shown)
VH: QVQLVESGGGLVKPGGSLRLSCAASGFTFSDYYMSWIRQAPGKGLEWVSYISSSGSTIYYADSVKGRFTISRDNAKNSLYLQMNSLRAEDTAVYYCARDFSHQQLVPSWGQGTLVTVSS
VL: not shown
- IC50, live SARS-CoV-2 focus reduction neutralization test (FRNT) [5]: 0.28 µg/mL

B5: P2C-1A3 (antibody, V domains shown)
VH: B4 VH
VL: not shown
- Live virus IC50 [6]: 0.283 µg/mL
- Live virus IC80 [6]: 1.46 µg/mL
- Pseudovirus IC50 [7]: 0.62 µg/mL
- Pseudovirus IC80 [7]: 5.94 µg/mL

B6: P5A-2E1 (antibody, human IgG1, lambda, V domains shown)
VH: EVQLVQSGAEVKKPGESLKISCKGSGYSFTSYWIGWVRQMPGKGLEWMGIIYPGDSDTRYSPSFQGQVTISADKSISTAYLQWSSLKASDTAMYYCAQTSVTRNWFDPWGQGTLVTVSS
VL: SYVLTQPPSVSVAPGKTARITCGGNNIGSKSVHWYQQKPGQAPVLVIYYDSDRPSGIPERFSGSNSGNTATLTISRVEAGDEADYYCQVWDSSSDHVVFGGGTKLTVLG
- IC50, pseudovirus neutralization [1]: 6.97 µg/mL

B7: P2C-1C10 (antibody, V domains shown)
VH: QVQLVQSGAEVKKPGSSVKVSCKASGGTFSSYAIIWVRQAPGQGLEWMGGIIPIFGTANYAQKFQGRVTITADESTSTAYMELSSLRSEDTAVYYCARVVTGYYFDYWGQGTLVTVSS
VL: EIVLTQSPATLSLSPGERATLSCRASQSVSSYLAWYQQKPGQAPRLLIYDASNRATGIPARFSGSGSGTDFTLTISSLEPEDFAVYYCQQRSNWPSFGQGTKLEIKR
- Live virus IC50 [6]: 11.1 µg/mL
- Live virus IC80 [6]: > 50 µg/mL
- Pseudovirus IC50 [7]: 2.62 µg/mL
- Pseudovirus IC80 [7]: 4.64 µg/mL
